Test results reported in patent US9395368B2, “Methods, agents and peptides for inducing an immune response to matrix metalloproteinase-2 expressing tumors” (New York University, priority 2010, dated 2016).

Experiments:
Recombinant IL-12p70 = assay: Incubation of recombinant IL-12p70 with MMP-2, IL-12p70 content by CBA; type: biochemical, human; conditions: rhIL-12 incubated for 24 h in the presence or absence of MMP-2
[1] = test system: Cord blood-derived CD4+/CD25- cells; assay: Priming of naive cord blood CD4+ T cells with autologous CD4- cells loaded with different sources of MMP-2; type: cell-based, human
Protocol: Cord blood-derived CD4^+/CD25^− cells from 11 donors were stimulated with irradiated autologous CD4^− cells loaded either with active MMP-2, heat-inactivated (HI) MMP-2 or with MMP-2 pre-incubated with a specific inhibitor (+I). After 15 days, CD4^+ T cells were stimulated with the MMP-2 peptide pool (2 μM) for 6 h before intracellular staining of cytokines. (A) Density plots representing cytokine production by CD4^+ T cells are shown for the representative donor CB35 primed to MMP-2 either in its active form or after heat-inactivation. Numbers indicate percentages of cytokine-producing cells upon MMP-2 peptide stimulation. […] MMP-2 enzymatic activity was controlled (FIG. 13C-D). For each cytokine, 3 paired t-tests were used to compare active MMP-2 to heat inactivated MMP-2, to MMP-2+I, and to MMP-2 peptides. P values≦0.0167 (*) were considered statistically significant using a Bonferroni correction for 3 comparisons.
T Cell culture, stimulation and priming. Peripheral blood mononuclear cells (PBMCs) were purified from healthy donor-(HD) or cord blood donor-(CB) derived buffy coats (New York Blood Center) by Ficoll-Paque Plus (GE Healthcare) centrifugation. CD4^+/CD25^− cells were enriched (>90%) by magnetic cell sorting (Miltenyi Biotec) and primed/stimulated for 12-15 days either with irradiated (35Gy) autologous CD4^− cells or with autologous mature DCs in IMDM (GIBCO) supplemented with 1 mM HEPES (Life Technologies), 2 mM L-glutamine (Sigma), streptomycin (100 UI/mL)/penicillin (100 μg/mL) (Sigma) and 5% heat inactivated pooled human serum (PHS; Valley Biomedical) in the presence of rhIL-2 (10 UI/mL) and IL7 (5 ng/mL) (R&D Systems). Antigen presenting cells (CD4^− cells or DCs) were loaded either with peptides (2 μM) or with the MMP-2 protein (10 μg/mL) for 2 and 5 h, respectively. DCs were matured using the TLR3 agonist poly(I:C) at 5 μg/mL/10^6 DCs (Amersham). To generate T cell clones, we originally relied on our published methodology (Godefroy et al., 2006; Godefroy et al., 2007; the entire contents of each of which is incorporated herein by reference), involving enrichment of IFNγ-secreting cells upon short-term culture and peptide stimulation to generate MMP-2 responsive clones. Briefly, CD4^+ T cells were stimulated by CD4^− cells irradiated and pulsed with peptides for 12 days in the presence of rhIL-2 and rhIL-7. CD4^+ T cells were then restimulated with peptides for 3 hours before capturing IFNγ-secreting specific cells using a bispecific antibody coating T cells and capturing produced IFNγ. Positive cells were purified magnetically before being cloned. Although MMP-2-specific cells could be isolated, it was realized that IFNγ secretion was marginal compared to their secretion of IL-4 and TNFα. IFNγ-secreting cells in response to MMP-2 peptide pool were enriched by cytokine-guided magnetic cell sorting (Miltenyi Biotec) as described above and cloned the following day by limiting dilution in the presence of irradiated allogeneic PBMCs, 1 μg/mL phytohemagglutinin-L (Sigma) and 150 UI/mL rhIL-2. Tumor infiltrating lymphocytes (TILs) were provided by Pr. F. Jotereau and B. Dréno. They were obtained from tumor-invaded lymph nodes of melanoma patients (stage Mb) and expanded ex vivo. These patients received autologous TILs and IL-2 infusions in a clinical trial (Labarriere et al., 2002). This protocol was approved by the Institutional Ethics Committee and registered with regulatory state authority in France (Nantes).
Intracellular staining T-bet and GATA-3 expression was measured on resting T cells. Cells were fixed (4% paraformaldehyde for 10 min at RT), permeabilized with 0.1% saponin, and stained for intracellular transcription factors. Cytokine production by T cells was also assessed by intracellular staining T cells were stimulated with 2 μM overlapping peptides. After 1 h, 10 μg/mL brefeldin A was added to the cells. […]

B1: active MMP-2: Purified human MMP-2 (mixture of the proenzyme (50%) and the active form (50%)) purchased from Biomol (protein, listed as Homo sapiens)
chain: MEALMARGALTGPLRALCLLGCLLSHAAAAPSPIIKFPGDVAPKTDKELAVQYLNTFYGCPKESCNLFVLKDTLKKMQKFFGLPQTGDLDQNTIETMRKPRCGNPDVANYNFFPRKPKWDKNQITYRIIGYTPDLDPETVDDAFARAFQVWSDVTPLRFSRIHDGEADIMINFGRWEHGDGYPFDGKDGLLAHAFAPGTGVGGDSHFDDDELWTLGEGQVVRVKYGNADGEYCKFPFLFNGKEYNSCTDTGRSDGFLWCSTTYNFEKDGKYGFCPHEALFTMGGNAEGQPCKFPFRFQGTSYDSCTTEGRTDGYRWCGTTEDYDRDKKYGFCPETAMSTVGGNSEGAPCVFPFTFLGNKYESCTSAGRSDGKMWCATTANYDDDRKWGFCPDQGYSLFLVAAHEFGHAMGLEHSQDPGALMAPIYTYTKNFRLSQDDIKGIQELYGASPDIDLGTGPTPTLGPVTPEICKQDIVFDGIAQIRGEIFFFKDRFIWRTVTPRDKPMGPLLVATFWPELPEKIDAVYEAPQEEKAVFFAGNEYWIYSASTLERGYPKPLTSLGLPPDVQRVDAAFNWSKNKKTYIFAGDKFWRYNEVKKKMDPGFPKLIADAWNAIPDNLDAVVDLQGGGHSYFFKGAYYLKLENQSLKSVKFGSIKSDWLGC
In the case of B1, the “IL-12p70 levels after incubation of rhIL-12 with MMP-2” value (Recombinant IL-12p70) is reported as “remained the same”, the “percentage of MMP-2-specific CD4+ T cells secreting IL-4, mean” value ([1]; 11 cord blood donors, 15 days after priming, after background subtraction) is reported as 2.38% and the “IFNγ and IL-2 production compared to inactive MMP-2 or peptides” value ([1]; primed cells, 15 days) is reported as “less”.
